In US20170190749A1:
Residue numbers refer to the chain shown, from its start.

T1: PhoCle0.1 large fragment after photocleavage (remainder of the protein)
T1 chain: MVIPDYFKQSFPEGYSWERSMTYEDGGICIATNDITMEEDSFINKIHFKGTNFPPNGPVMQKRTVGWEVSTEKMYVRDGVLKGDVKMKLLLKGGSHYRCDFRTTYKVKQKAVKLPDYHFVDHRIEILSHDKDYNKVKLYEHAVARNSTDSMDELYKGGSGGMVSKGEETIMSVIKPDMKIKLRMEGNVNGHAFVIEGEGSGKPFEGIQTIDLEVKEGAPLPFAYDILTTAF

T2: PhoCle0.3 large fragment after photocleavage (~20 kDa remainder of the PhoCle domain)
T2 chain: T1 chain with F101Y, M171T, I180N


What was measured:
[1] = target: T1, PhoCle0.1 large fragment after …; test: spectroscopic and SDS-PAGE analyses of the protein before and after illumination
[2] = target: T2, PhoCle0.3 large fragment after …; test: decay of red fluorescence/absorbance following photocleavage

Row | t0.5 of spontaneous dissociation after photocleavage [1] | t0.5 of peptide dissociation after photocleavage [2] | Binder
1 | 500 s | – | HYGNRVFTKYPR (modifications not checked) [PhoCle0.1 small chromophore-containing peptide fragment after photocleavage]
2 | – | 120 s | HYGNRVFTKYPR (modifications not checked) [PhoCle0.3 small chromophore-containing peptide fragment after photocleavage]
